Laboratory results: the nanobody polyreactivity screen of Harvey et al. (2022)

Assay: yeast display, Sf9 membrane polyspecificity reagent, FACS + sequencing; frameworks hold sequencing errors
How it was run: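 Polyreactivity labels are assigned by the sorting gate from which each nanobody was recovered. The gates were low and high (top ~1%), set on anti-HA fluorescence for expression and streptavidin fluorescence for reagent binding. Before sorting, galactose-induced (36–48 hours) yeast display cells were stained for 1 hour at 4 °C with 10% biotinylated, detergent-solubilized Sf9 membrane reagent.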

Row | Sequence | polyreactivity (PSR sort gate)
1 | QVPLVESGGGLVQAGGSLRLSCAASGRIFSSYAMGWYRQAPGKERELVAAISSRGGSTYYADSVKGRFTISRDNAKNTVYLQMNSLKPEDTAVYYCARVKYSGVVYKYDYWGQGTQVTVSS | high polyreactivity
2 | QVPLVESGGGLVQAGGSLRLSCAASGRTFGRYAMGWYRQTHGKERELVASISWRGGSTYYADSVKGRFTISRDYAKNTVFLQMNSLKPEDTAVYYCAVRFLTYWHGSYWYDYWGQGTQVTVSS | high polyreactivity
3 | QVPLVESGGGLVQAGGSLRLSCAASGRTFRPYALGWYRQAPGKERELVATISGGGSTYYADSVKGRFTISRDNAKNSLYLQLNSLKPEETAFYYCAKVLTYGGVSYISRMDYWGQATQVTVSS | low polyreactivity
4 | QVPLVESGGGLVQAGGSLRLSCAASGSTFRRYGMGWYREAPGKERELFAAISKGGTRTYYADSVKGRFTISRDNAKNTVYLQMNSLKPEDTAVYYCNKAWYAYGPVYASWYGEYDYWGLGTQVTVSS | high polyreactivity
5 | QVPLVESGGGLVQAGGSLRLSCAASGSTLAGYTMGWYRQAPGKERELVAAITWSGSSTYYADSVKGRFTISRDNAKNTVYLQMNSLKPEDTAVYYCAATYYVYSGGNYLRYDSWGQGTQVTVSS | high polyreactivity
6 | QVPLVESGGGLVQAGGSLRLSCAASGSTQNRYAMGWYRQAPGKEREFVAAITWRGGSTYADSVKGRFTISRDNAKTTVYLQMYSLKPEDTAVYYCAAQGYKQRVHYDYWGQGNQVTVSS | high polyreactivity
7 | QVPLVESGGGLVQAGGSLRLSCAASGYIFEKYAMGWYRHAPGKERELVAAITVTGASTYYADSVKGRFTSSRDNAKNTVYLQMNSLKPEDTAVYYGAAKTLSVGYVDPDYGRDYWGQGTQLTVSS | low polyreactivity
8 | QVPLVESGGGVVQAGGSLRLSCAASGRTYRWNVMGWYRQAPGKERELVATISRRSGSTNYADSVKGRFTISRDNAKNTVYLQINSLKPEDTAVYYCNTDTYFPLYDYWGQGTQVTVSS | low polyreactivity
9 | QVPRVESGGGLVQAGGSLRLSCAASGFTFRFYDMGWYRQARGNERELVAAISWSGTSTYYADSVKGRFTISRDNAKNTVYLQMNSLKPEETAVYYCAADIIGYEFDYWGQGTQVTVSS | high polyreactivity
10 | QVQFVDSGAGLVQAGGSLRLSCAASGSTLTTNAMGWYRQAPGKERELVAAISWRGGPTYYADSVKGRFTISRDIAKNTVYLQMNSLKPEDTAVYYCAADYTRSAYDYWGQGTQVTVSS | high polyreactivity
11 | QVQHEDSGGGLVQAGGSLRLSCAASGRIFSFYTMGWYRQAPGKERELVAAISGSGGSTYYADSVKGRFTISRDNAKNTVYLQMNSLKPEDTAVYYCARRRQRGGVNYWGQGTQVTVSS | high polyreactivity
12 | QVQHEESGGGLDQPGGSLRLTCAASGRIFNGYKMGWYRKAPGKETEFVDTISRSGGSTYYADSVKGRFTISRDNAKNSVYLQMNSLKPEDTAVYYCAKSYPDKWEYDYWGQGTQVTVSS | low polyreactivity
13 | QVQHEESGGGLVQAGGSLRLSCAASGIIFYYYALGWYRQAPGKERELVAAITGTGSRTYYADSVKGRFTISRDNAKNTVYLQMNSLKPEDTAVYYCNARSFATGSKVPARGYWGHGTQVTVSS | high polyreactivity
14 | QVQHEESGRALVQAGGSLRLSCPPSGTTGIYAIGWYRQAPGKERELVAAITRRAGSTYYADSVKGRFTISRDNAKNRVYLLMTSLKPEDTAVYDCNATRGTATAYYYRWAGGYWGQGTQVTVSS | low polyreactivity
15 | QVQHEESGRGLVQAGGSLRLSCAASGINCVYYAMGCYRQAPGKERELVAAISKNGGSTYYADSVKGRFTISRDNAYNTVYLQMNSLKPEDTAVYYCAAEEGYRWVRYNYWGQGTQVTVSS | high polyreactivity
16 | QVQHLESGGGLVQAGGSLRLSCVASGLTQPYAMRWYRQAPGKERQLVAAITGGDGSTTYADSVKGRFTISRVNAKNTVYLQMNSLKPEDTAVYYCNADTARKYAESQFYHWGQGTQVSVSS | low polyreactivity

Row | Sequence | polyreactivity (PSR sort gate)
17 | QVQHLESGGGLVQAGRSLRLSCAASGSTFITNTMGWYIKATGKERELLAAISKSGGSTYYADSVKGRFTISRDNAKNTVYLQMNSLKPEDTAVYYCAADIYVRDRGVKYDYWGQGTQVTVSS | low polyreactivity
18 | QVQHVDSGGGLVQARGTLRLSCSASGRNFGIYTMGWYRQPPVKERELVAAISWRGGSTYYADSVKGRFTISRDNAKNTVYFQLNSLKPEDTAVYYCGKTQPGWRPVRDQIRYGYWGQGTQVTVSA | high polyreactivity
19 | QVQHVDSGGGLVQEGGSLRLICAASGSIFEQYTMGWYIQAPGKERELVAAISRRSGRTYYADSVKGRFTISRDNAKNTVYLQMNSLKPADTAVYYCAAQHAIYRNPGLDDYWGQGTQVTVSS | high polyreactivity
20 | QVQHVESAAGLVQAGGSLRLTCAASGSIFRVYTMGWSRQAPGKERELVAAISRSGGRTYYADSVKGRFTISRDNAKNTVYLQMNSLKPEDTAVYYCAKRGRVTYPYYYWGQGTQVTVSS | high polyreactivity
21 | QVQHVESAGGLVQAGGILRLSCAASGSTFVGNAMGWYRQAPGKEREWVATISNSGGRTDYADSVKGRFTISRDNAKNTVYLQMNSLKPEDTAVYYCAADHPAFGPGYSFDYWGQGTQVTVSS | low polyreactivity
22 | QVQHVESAGGLVQAGGSLRLSCAASARTFRYYAMGWYRQSPGKERELVAAINYSGGRTYYADSVKGRFTISRDNAKITVYLQMNSLNPEDTAVYYCNAVLGSYLPKFDYWGQGTQVTVSS | high polyreactivity
23 | QVQHVESARGLVHAGGSLRLSCAASGGTFQYYAMGLSRQAPGKERELVAAISSSGSTYYADSVKGRFTISRDNAKNTVYLQMNSLKPEDTAVYYCAAGHISIYYYTFYYWGQGTQVTVSS | high polyreactivity
24 | QVQHVESGAGLVQAAGSLRLSCAASGSTFSSYALGWYRQAPGKERELVAAISHGDSTYYADSVKGRFTISRDNAKNTVYLQMNSLKPEDSAVYYCAALHEVWGVDYWGQGTHVTVSS | low polyreactivity
25 | QVQHVESGARLVQAGGSLRLSCAASGHIFFDYTMGWSRQAPGKERELVAGITIGGSTNYADSVKGRFTISRDNAKNTVYLQMNSLKPEDTAVYYCNVVKYVYIYSYWEYYYWGQGTQVTVSS | low polyreactivity
26 | QVQHVESGGALVKAGGSLRIRCAASGITFSKYAMGWYRQAPGKEMELVAAITRSGGSTYYADSVKGRFTISRDNGKNTVYLQMNSLKPEDTAVYSCIARGYFTGGDGGSGYWGQVTQVTVSS | high polyreactivity
27 | QVQHVESGGALVQAGGSLRLSCAASGSTFTRNAMGWDRHAPGKERELVAAITSSGTSTYYADSVKGRFTISRDNAKNTVYLQMNSLKPEATAVYYCAAGIQSTYPKGGYRVTYYYWGQGTQVTVSS | high polyreactivity
28 | QVQHVESGGCLDQAGGSLRLSCAASGIFRTNARGWYRTAPGKERELVAGISSGGGTNYADSVKGRFTISRDNAKNTVYLQMNSLKPEDTAVYSCAKERIYFYYWYVYSDLVYEYDYCGQGTQVTVSS | low polyreactivity
29 | QVQHVESGGGFVQAGGSLRLSCAASGITFYDYTMGWYRPAPGKERELVDAITSSGVSTYYADSVKGRFTISRDNAKKTVYLQMNSLKPEDTAVYYCATDAWSVYSYLAFTYDYWGQGTQVTVSS | low polyreactivity
30 | QVQHVESGGGIVQAGGSLRLSCAASGGIFGYYAMGWYRQAPGKEREFVATITRGGGSTYYADSVKGRFTISRDNAKNTVYLQMNSLKPEDSAVYYCNAKPSYYQRYIYWGQGTQVTVSS | high polyreactivity
31 | QVQHVESGGGIVQAGGSLRLSCAASVRTIPYNAMGRYRQAPGKERELVAAISTGGSTNYADSVKGRFTISRDNAKNTVYLQMNSLKPEDTAVYYCNTRYRWARNWAYYYWGQGTQVTVSS | high polyreactivity
